The values below come from US20140241987A1.

For experiment [1], the target named is α-synuclein fibrils (human) (UniProt P37840). The experiment is described as follows: inhibition ELISA, fibrils against monomers. For orientation: An ELISA detects its analyte on a solid surface through an enzyme-linked reagent.
For experiment [2] the target is unchanged. Put plainly: SPR, BIAcore X100, fibrils immobilised on CM5, mAb injected. (In general: In SPR one partner is held on a chip, and binding of the other changes the refractive index at the surface.)

pKd: −log10 of the molar value.

Broadly, the pKd is the negative decadic logarithm of the Kd, by convention in mol/L. By koff is commonly meant the first-order rate constant of dissociation. High values mean a short-lived complex, low ones a long-lived complex. In general, kon refers to the second-order rate constant of association. Low readings indicate slower complex formation, high ones faster complex formation. Syn-O3 (antibody) displayed a Fold Affinity to Fibrils in experiment [1] of 11100 fold. In experiment [2], this substance gave a pKd of 9.77, a koff of 0.000379 s⁻¹ and an association rate constant (kon) of 2.22e+06 M⁻¹ s⁻¹.
On the same counts, the results for Syn-O4 (antibody) are 6930 fold, 9.86, 0.000996 s⁻¹ and 7.24e+06 M⁻¹ s⁻¹.
On the same counts, the results for Syn-O1 (antibody) are 12700 fold, 10.80, 9.36e-05 s⁻¹ and 5.86e+06 M⁻¹ s⁻¹.
On the same counts, the results for Syn-O2 (antibody) are 27300 fold, 10.01, 0.00127 s⁻¹ and 1.31e+07 M⁻¹ s⁻¹.
